Test results from patent publication US20220168440A1, “ANTIBODY-PYRROLOBENZODIAZEPINE DEPRIVATIVE CONJUGATE” (DAIICHI SANKYO COMPANY, LIMITED, priority 2019, published 2022).

Assays:
human claudin-6 = target: T1, human claudin-6 (Homo sapiens, UniProt P56747); test: FACS analysis of 218B1/218C7 antibodies on human claudin-6-expressing CHO-K1 cells; format: binding; details: forced expression by cDNA transfection
T1 construct: expressed in transfected cells; host or cells: CHO-K1 cells
T1 sequence (P56747 1-220): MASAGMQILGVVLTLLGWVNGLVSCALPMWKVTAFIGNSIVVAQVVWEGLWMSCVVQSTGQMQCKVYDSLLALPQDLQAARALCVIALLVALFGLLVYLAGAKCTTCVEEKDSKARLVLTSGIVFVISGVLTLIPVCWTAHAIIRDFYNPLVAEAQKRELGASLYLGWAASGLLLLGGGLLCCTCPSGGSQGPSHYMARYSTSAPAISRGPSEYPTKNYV
Experimental: Since the antigen for the 218B1 antibody and 218C7 antibody was estimated to be claudin-6 from the mass spectrometry, forced expression analysis by cDNA transfection was carried out.

BxPC-3 = test: Internalization activity by Mab-ZAP (saporin-conjugated anti-mouse IgG), cell survival; format: cell-based; details: human CLDN6-negative pancreatic cancer cell line BxPC-3; antibody 1 nM, Mab-ZAP 0.5 nM; 5 days
Experimental: (§1) Internalization activity of the mouse anti-CLDN6 antibodies B1 and C7 was evaluated by using the anti-mouse IgG reagent, to which a toxin that inhibits protein synthesis (saporin) had been conjugated, Mab-ZAP (Advanced Targeting Systems). In this evaluation, Mab-ZAP is incorporated into cells in a manner depending on the internalization activity of a mouse anti-CLDN6 antibody, and saporin, which inhibits protein synthesis, is released in the cells to suppress cell growth.
(§2) JEG-3(ATCC HTB-36), a human choriocarcinoma cell line of human CLDN6-positive cells, NIH:OVCAR-3 (ATCC HTB-161), a human ovarian cancer cell line of human CLDN6-positive cells, or BxPC-3 (ATCC CRL-1687), a human pancreatic cancer cell line of human CLDN6-negative cells, was seeded in a 96-well cell culture microplate at 2×10^3 cells/well, and cultured under conditions of 37° C. and 5% CO2 overnight. On the next day, a mixed solution obtained by mixing each mouse anti-CLDN6 antibody or mouse IgG1 antibody (R&D Systems, Inc.) to a final concentration of 1 nM, with Mab-ZAP (final concentration: 0.5 nM) or AffiniPure Goat Anti-Mouse IgG, Fcγ Fragment Specific (Jackson ImmunoResearch Laboratories Inc.) (final concentration: 0.5 nM), without conjugated toxin, was added, and the cells were cultured under conditions of 37° C. and 5% CO2 for 5 days. The number of surviving cells was determined through quantification of ATP activity by using CellTiter-Glo Luminescent Cell Viability Assay (Promega Corporation).

JEG-3 = test: as above; format: cell-based; details: human CLDN6-positive choriocarcinoma cell line JEG-3; antibody 1 nM, Mab-ZAP 0.5 nM; 5 days
Experimental: as §1, §2

NIH:OVCAR-3 = test: as above; format: cell-based; details: human CLDN6-positive ovarian cancer cell line NIH:OVCAR-3; antibody 1 nM, Mab-ZAP 0.5 nM; 5 days
Experimental: as §1, §2

B1: C7: mouse anti-CLDN6 antibody; heavy/light chain variable regions SEQ ID NO: 25 and 23 (antibody, listed as Mus musculus, V domains shown)
VH: EVQLQQSGPELVKPGASVKISCKTSGYTFTEYTMHWVQQSHGKSLEWIGGVNPNSGDTSYNQKFKGKATLTVDKSSSTAYMELRSLTSEDSAVYYCARPGGYDVGYYAMDYWGQGTSVTVSS
VL: DIQMTQTASSLSASLGDRVTISCRASQDINNYLNWYQQKPDGTVKLLIYSTSRLHSGVPSRFSGSGSGTHYSLTITHLEQEDIATYFCQQGYPLPWTFGGGTKLEIK
modifications: amino acid sequence of variable region of C7 antibody heavy chain; amino acid sequence of variable region of C7 antibody light chain
Human claudin-6
  FACS reaction for human claudin-6-expressing CHO-K1 cells: strong positive reaction
BxPC-3
  cell growth-suppressing effect (relative survival rate) with Mab-ZAP: no cell growth-suppressing effect
JEG-3
  cell growth-suppressing effect (relative survival rate) with Mab-ZAP: cell growth-suppressing effect
NIH:OVCAR-3
  cell growth-suppressing effect (relative survival rate) with Mab-ZAP: cell growth-suppressing effect
